In patent publication US10925971B2, “Methods of treating PRLR positive breast cancer” (Regeneron Pharmaceuticals, Inc., priority 2016, dated 2021):
Entries after “also recorded” stand apart in the source; their conditions may differ.

What was measured:
[1] = tested on: PRLR expression in T47DvII cells; assay: PRLR expression after continuous culture with fulvestrant (flow cytometry or western blotting); type: cell-based, human; conditions: continuous culture with 10 or 100 nM, data not shown
T47Dv11 tumors = assay: T47Dv11 breast tumor xenograft, single agent and combination with fulvestrant; type: in vivo, C.B.-17 SCID mice; conditions: for Average Tumor Growth Inhibition (%) / Final Tumor Volume (mean ± SD): T47DvII tumors in SCID mice, Day 70
Procedure: The T47Dv11 model was used to assess the activity of H1H6958N2-DM1 in a model with significant levels of endogenous PRLR. […] Initially, 10×10^6 parental T47D cells were implanted subcutaneously (SC) into the left flank of female C.B.-17 SCID mice (Taconic, Hudson N.Y.). Tumors were supplemented with a 90-day release 1.7 mg estrogen pellet (Innovative Research America). Where T47D tumors were observed, they were excised and cut into 3 mm fragments and subsequently implanted into the left flank of separate female C.B.-17 SCID mice. Subsequent passaging was performed until a large tumor was disaggregated into a single cell suspension. The cells (named T47Dv11) from this tumor were then cultured in vitro and expanded. […] For efficacy studies, mice were implanted with 7.5×10^6 T47Dv11 cells into the left flank of female C.B.-17 SCID mice supplemented with a 90-day release 0.72 mg/pellet estrogen pellet. For MCF7 and MCF7/PRLR tumor xenografts, 2×10^7 MCF7/PRLR cells were implanted SC into the left mammary fat pad of female NCr nude mice (7-8 weeks old) supplemented with 90-day release 0.72 mg/pellet estrogen pellets. Tumors were measured with calipers twice a week for the duration of each study. Tumor volume was calculated using the formula TV=(length×width^2)/2.
After T47Dv11 tumors reached an average volume of ˜150-200 mm^3 (14-16 days post implantation), mice were randomized into treatment groups (n=8-9 mice/group) and received a single dose or three once-weekly doses of H1H6958N2-DM1, control ADC, or vehicle control, administered systemically by intravenous tail-vein injection. […] Tumor size and body weight were measured in vivo twice per week throughout the duration of the study.
Next, the combination of H1H6958N2-DM1 with the SERD fulvestrant was tested in the T47Dv11 xenograft model. Here, the activity of either agent at partially effective doses was compared against the activity of the agents in combination. First, a dose titration study of weekly administration of fulvestrant was performed in order to establish its single agent activity (FIG. 4).
For the subcutaneous tumors, average tumor size as well as tumor growth inhibition relative to the Vehicle treated group were calculated for each group. Tumors were measured with calipers twice a week until the average size of the vehicle group reached 1200 mm^3. Tumor size was calculated using the formula (length×width^2)/2. For all studies, tumor growth inhibition was calculated according to the following formula: (1−((Tfinal−Tinitial)/(Cfinal−Cinitial)))*100, where T (treated group) and C (control group) represent the mean tumor mass on the day the vehicle group reached 1000 mm^3.

[2] = tested on: PRLR in HEK293/PRLR/STAT5-Luc cells; assay: STAT5 luciferase reporter assay, blocking of PRL-induced PRLR signaling (2 nM PRL); type: cell-based; conditions: PRL dose response, no antibody; read-out: EC50, stimulation of human PRLR signaling
Procedure: The capacity of H1H6958N2 and H1H6958N2-DM1 to block human PRL-induced PRLR signaling was determined in a luciferase reporter assay using the HEK293 cell line engineered to constitutively express PRLR and stably transduced with a lucifierase reporter construct comprising 5 tandem STAT5 binding sites derived from the promoter of the human interleukin-2 receptor α gene [STAT5 response element (×5)-luciferase] (John et al., The EMBO Journal, 1996, 15(20): 5627-5635). […] Plates were incubated at 37° C. and 5% CO2 for 5 hours and equilibrated to room temperature for 10 minutes. Luciferase activity was again measured using the ONE-Glo substrate and measuring luminescence.

[3] = target: cynomolgus monkey PRLR (dimeric) binding to PRL; assay: ELISA-based blocking of PRLR binding to immobilized human PRL; parameters: species or system Macaca fascicularis; conditions: plates coated with 1 μg/mL PRL; read-out: EC50, monkey PRLR binding to captured PRL
cynomolgus monkey PRLR (dimeric) binding to PRL, sequence (as listed by the source): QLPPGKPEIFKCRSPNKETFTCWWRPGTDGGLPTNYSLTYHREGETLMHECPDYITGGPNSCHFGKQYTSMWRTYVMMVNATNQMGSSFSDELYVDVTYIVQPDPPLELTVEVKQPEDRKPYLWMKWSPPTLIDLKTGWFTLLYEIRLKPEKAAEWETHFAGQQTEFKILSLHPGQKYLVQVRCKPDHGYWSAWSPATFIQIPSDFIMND
Procedure: (§1) ELISA-based blocking assays were developed to determine the ability of H1H6958N2 and H1H6958N2-DM1 to block binding of human and cynomolgus monkey PRLR to immobilized human PRL. Dimeric forms of human or cynomolgus monkey (Macaca fascicularis) PRLR and monomeric human PRL were used in this assay. To generate initial dose-response curves, human or monkey PRLR at concentrations ranging from 3.38 pM to 200 nM was added to the plates previously coated in 1 μg/mL PRL. After 1-hour incubation, captured PRLR was detected with HRP-conjugated goat anti-Fcγ antibody and visualized with TMB colorimetric substrate by measuring absorbance at 450 nm. […] Mixtures were then added to plates coated with in 1 μg/mL PRL and captured PRLR was detected as described above. Data were analyzed using a four-parameter logistic equation over an 11-point response curve in GraphPad Prism software and IC50 values were calculated.

[4] = target: human PRLR (dimeric) binding to PRL (Homo sapiens, UniProt P16471); assay: as above; conditions: plates coated with 1 μg/mL PRL; read-out: EC50, human PRLR binding to captured PRL
human PRLR (dimeric) binding to PRL, sequence (P16471 with tags, fused parts or gaps limits assumed): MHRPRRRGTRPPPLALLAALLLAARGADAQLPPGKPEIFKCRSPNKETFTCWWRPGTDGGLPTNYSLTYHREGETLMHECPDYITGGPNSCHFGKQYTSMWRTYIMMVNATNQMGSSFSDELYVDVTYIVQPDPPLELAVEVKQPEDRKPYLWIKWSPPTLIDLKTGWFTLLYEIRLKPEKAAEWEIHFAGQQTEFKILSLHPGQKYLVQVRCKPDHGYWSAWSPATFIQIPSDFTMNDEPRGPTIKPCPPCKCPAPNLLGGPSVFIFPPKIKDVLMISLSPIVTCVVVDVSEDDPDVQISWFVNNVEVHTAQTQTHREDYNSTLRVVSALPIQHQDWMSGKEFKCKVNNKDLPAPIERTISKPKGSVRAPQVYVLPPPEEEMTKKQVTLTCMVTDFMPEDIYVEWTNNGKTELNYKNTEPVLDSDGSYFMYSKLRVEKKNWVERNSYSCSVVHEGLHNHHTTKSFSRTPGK
Procedure: as §1

HEK293 (293) cells = assay: In vitro cell viability (cell kill) assay, CCK8; type: cell-based, human; conditions: HEK293, Table 13
Outline: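 Anti-PRLR–DM1 ADCs (non-cleavable SMCC linker) or free DM1-SMe, 500 nM to 5 pM for 3 days on parental or hPRLR-overexpressing lines. HEK293: CCK8 OD450; MCF7: Hoechst nuclear counts by imaging.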

T47D cells [5] = assay: In vitro cell viability (cell kill) assay, CCK8; type: cell-based, human; conditions: T47D; Table 13; without PRL
Procedure: (§2) Next, the ability of anti-PRLR-DM1 antibody-drug conjugates (i.e., anti-PRLR antibodies conjugated to DM1 via a non-cleavable linker [SMCC]) to reduce cell viability was determined using in vitro cell based assays. Cells were seeded in PDL-coated 96 well plates at 1500 to 10000 cells per well in complete growth media and allowed to grow overnight. For cell viability curves, ADCs or free DM1 (as the methyl disulfide derivative DM1-SMe) were added to the cells at final concentrations ranging from 500 nM to 5 pM and incubated for 3 days. The 293, PC3 and T47D cells were incubated with CCK8 (Dojindo, Rockville, Md.) for the final 1-3 hours and the absorbance at 450 nm (OD450) was determined on a Flexstation3 (Molecular Devices, Sunnyvale, Calif.). MCF7 cells were treated with Hoechst 33342 nuclear stain while being fixed with 4% formaldehyde. Images were acquired on the ImageXpress micro XL (Molecular Devices, Sunnyvale, Calif.) and nuclear counts were determined via Columbus image analysis software (Perkin Elmer, Shelton, Conn.). Background OD450 values (PC3, 293, and T47D) or nuclear counts (MCF7) from digitonin (40 nM) treated cells was subtracted from all wells and viability was expressed as a percentage of the untreated controls. IC50 values were determined from a four-parameter logistic equation over a 10-point response curve (GraphPad Prism).

T47D cells [6] = assay: Cell kill in the presence of PRLR ligand PRL (15 nM); type: cell-based, human; conditions: Table 13, + 15 nM PRL
Procedure: as §2

With C[C@]12CC[C@@H]3c4ccc(O)cc4C[C@@H](CCCCCCCCC[S+]([O-])CCCC(F)(F)C(F)(F)F)[C@H]3[C@@H]1CC[C@@H]2O (stereo partly shown) [fulvestrant, reference compound] the “PRLR expression” value [1] was “did not decrease PRLR expression; also recorded: did not significantly reduce PRLR expression”, the “Average Tumor Growth Inhibition (%)” value (T47Dv11 tumors; 150 mg/kg) was 52% and the “Final Tumor Volume (mean ± SD)” value (T47Dv11 tumors; 150 mg/kg) was 660 ± 205 mm^3. The “Average Tumor Growth Inhibition (%)” value (T47Dv11 tumors; 250 mg/kg) was 74%, the “Final Tumor Volume (mean ± SD)” value (T47Dv11 tumors; 250 mg/kg) was 433 ± 189 mm^3 and the “anti-tumor activity” value (T47Dv11 tumors; combination study, individual treatment 150 or 250 mg/kg subcutaneously once weekly) was “Significant anti-tumor activity”.

B1: PRL: monomeric human prolactin, ligand of PRLR (protein)
chain: LPICPGGAARCQVTLRDLFDRAVVLSHYIHNLSSEMFSEFDKRYTHGRGFITKAINSCHTSSLATPEDKEQAQQMNQKDFLSLIVSILRSWNEPLYHLVTEVRGMQEAPEAILSKAVEIEEQTKRLLEGMELIVSQVHPETKENEIYPVWSGLPSLQMADEESRLSAYYNLLHCLRRDSHKIDNYLKLLKCRIIHNNNC
B1 showed an EC50 [2] of 2.1 nM, an EC50 [3] of 5.7 nM and an EC50 [4] of 4.9 nM.

B2: H1H6782P-SMCC-DM1 (conjugate)
VH: EVQLVESGGGLVQPGRSLRLSCAASGFTFDDYAMHWVRQAPGKGLEWVSGIIWNSGHIGYGDSVKGRFTISRDNAKKSLYLQMNSLRAEDTALYYCARDSGRYQSYFDYWGQGTLVTVSS
VL: DIQMTQSPSTLSASVGDRVTITCRASHIISSWLAWYQQKPGKAPKVLIFKASSLESGVPSRFSGSGSGTEFTLTISSLQPDDFATYYCQQYNTYSRTFGQGTKVEIK
With B2 the “% Kill” value (HEK293 (293) cells; + 15 nM PRL) was 78%, the “% Kill” value (HEK293 (293) cells; without PRL) was 83% and the “% Kill” value (T47D cells [5]) was 98%. The “% Kill” value (T47D cells [6]) was 97%.
